Target: T1, recombinant His-tagged PRMT5 (human, UniProt O14744-1 1-637)
T1 construct: Protein arginine methyltransferase 5 (PRMT5), full length, NM_006109.4; Cloned in pET28a; also called His-PRMT5; His-RMT5; source: bacterial expression, purified
Experiment: pull-down; 50 ug GST or GST-FAM47E on glutathione sepharose 4B, blocked with 5% BSA; 25 ug His-PRMT5 in 10 mM Tris, 150 mM NaCl, 0.5 mM EDTA, 0.1% NP40, 3 h at 4°C; washed with 300 mM NaCl, 0.5% NP40; probed with His antibody
Conditions: both partners purified

T1 sequence (O14744 whole entry): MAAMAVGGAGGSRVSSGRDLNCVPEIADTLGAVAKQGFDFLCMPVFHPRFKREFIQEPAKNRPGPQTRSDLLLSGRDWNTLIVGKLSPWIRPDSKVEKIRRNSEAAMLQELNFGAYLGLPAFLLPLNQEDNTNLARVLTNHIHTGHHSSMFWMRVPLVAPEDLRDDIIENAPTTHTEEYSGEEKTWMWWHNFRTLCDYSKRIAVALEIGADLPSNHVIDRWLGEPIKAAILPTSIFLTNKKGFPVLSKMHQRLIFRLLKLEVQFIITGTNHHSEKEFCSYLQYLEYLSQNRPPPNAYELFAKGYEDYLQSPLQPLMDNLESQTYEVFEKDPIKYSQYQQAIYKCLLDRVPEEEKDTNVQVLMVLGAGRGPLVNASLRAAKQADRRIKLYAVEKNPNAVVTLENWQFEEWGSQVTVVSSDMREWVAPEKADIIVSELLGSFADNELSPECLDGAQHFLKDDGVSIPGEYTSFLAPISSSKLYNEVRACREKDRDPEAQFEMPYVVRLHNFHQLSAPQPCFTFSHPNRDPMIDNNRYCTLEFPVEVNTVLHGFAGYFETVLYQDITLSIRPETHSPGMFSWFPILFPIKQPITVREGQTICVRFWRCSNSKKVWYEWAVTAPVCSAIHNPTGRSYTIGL

B1: recombinant GST-tagged FAM47E (natural protein, human, UniProt Q6ZV65-2 1-295, looked up)
chain: MQMSVPCVLSSLQNHEPNKPLFTTQSQLLSKVLEVLDPDRKLEDTWAYCQDTRKGMKEPTKLLKKHSTQVYLGPSKKTSVSNAGQWLYEEKPHKMDLLHENGPRPGLHENVCKAVSDFCKWVTTFGISDIDEEFILKQFDIDYETKPSHDALHTMKLNQVPLELKRSVGLSKLQETEFFQKLGYERKLQKPQNPYKPKWVKMRYGAWYLNPKLWKKQRVDEPLVDPEVSHKAQEENFKKELQEQEELLADLHGTVAFKDFILSRGYRTPRFLENMYIGKECKRACNKTPIKRTQA
notes: Cloned in pGEX-6P2; also called GST-FAM47E; pGEX-FAM47E; source: bacterial expression, purified
binding result: binds

From paper PMC7772775, “The uncharacterized protein FAM47E interacts with PRMT5 and regulates its functions” (Life Science Alliance, 2020)
